Experimental data reported in US20240382586A1 (TAKIS S R L, published 2024).
Where a chain is given by its changes, count along the chain named.

B1: 9-2H7-D7 (mouse) (antibody, V domains shown)
VH: EVQLQQSGPELVKPGASVTISCKTSGYTFTEYTMYWVKQSHGKSLEWIGGINPYIGDTSYNQNFKGKATLTVDKSSSTAYMELRSLTSEDSAVYYCARDGYPDYSAMDFWGQGTSVTVSS
VL: DIVMSQSPSSLAVSVGEKVTMNCKSSQNLLYSSNQKNYLAWYQQKPGQSPKLLIYWASTRESGVPDRFTGSGSGTDFTLTISSVKAEDLAVYSCQQYYTYPWTFGGGTKLEIK
B2: 9-2H7-D7 chimera (antibody, V domains shown)
VH: B1 VH
VL: B1 VL
B3: 9-7A4-C2 (mouse) (antibody, V domains shown)
VH: EVQLQQSGPELVKPGASVKISCKTSGYTFTEYTMYWVKQSHGKSLEWIGGINPNNGDSSYIQKFKGKATLTVDESSSTAYMELRSLTSEDSAVYYCARDGYPNSYAMDYWGQGTSVTVSS
VL: B1 VL with E17D, N22S, N28S, S33T, S82G, K85R, A86P, S93Y, T99S
B4: humanised 9-8F2-B11 (VH3VL3) (antibody, V domains shown)
VH: QVQLVQSGAEVKKPGASVKVSCKASGFNIKETYVHWVRQAPGQGLEWMGRIDPAIGDSEYAQKFQGRVTMTRDTSISTAYMELSRLRSDDTAVYYCARTWGPFFDFWGQGTLVTVSS
VL: DIVMTQTPLSLSVTPGQPASISCKSSQSLLHSHGNTFLHWYLQKPGQSPQVLIYKVSSRFSGVPDRFSGSGSGTDFTLKISRVEAEDVGVYYCSQSTHVPYTFGQGTKLEIK
notes: also called 9-8F2-B11 humanised
B5: 9-8F2-B11 (mouse) (antibody, V domains shown)
VH: EVQLQQSGAELVKPGASVKLSCTASGFNIKETYVHWVKQRPEQGLEWIGRIDPAIGDSEYDPKFQGKATVTADTSSNTAYLQLSRLTSEDTAVYYCARTWGPFFDFWGQGTTLTVSS
VL: DVVMTQTPLSLPVSLGDQASISCRSSQSLVHSHGNTFLHWYLQKPGQSPKVLIYKVSSRFSGVPDRFSGSGAGTDFTLKISRVEAEDLGVYFCSQSTHVPYTFGGGTKLEIK

Tests used:
[1] = target: SARS-CoV-2 spike, variant N501Y (B.1.1.7, British) (on virus or pseudovirus) (SARS-CoV-2, UniProt P0DTC2 14-1273); assay: cell-based or functional assay
[2] = target: SARS-CoV-2 spike, African variant B.1.351 (on pseudovirus) (SARS-CoV-2); assay: cell-based or functional assay

Binder	IC50 (ng/ml), pseudovirus neutralisation, British B1.1.7 [1]	IC50 (ng/ml), pseudovirus neutralisation, African B1.1.351 [2]
B1	40 ng/mL	
B2	11 ng/mL	21 ng/mL
B3	18 ng/mL	20 ng/mL
B4	11 ng/mL	12000 ng/mL
B5	7.7 ng/mL	
